In the RNAGym collection of RNA variant scans (doi:10.1093/nar/gkz1192):

B1: CPEB3 Ribozyme (parent)
chain: UAACAGGGGGCCACAGCAGAAGCGUUCACGUCGCAGCCCCUGUCAGAUUCUGGUGAAUCUGCGAAUUCUGCUGUAUAUCUC

Variants of: B1
Test: self-cleavage, relative activity (ratio to wild type); higher = more cleavage; in vitro, sequencing
Method in brief: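 Relative activity compares each variant's cleaved/total read fraction with that of the unmutated ribozyme. To get these fractions, barcoded CPEB3 ribozyme libraries from rounds of error-prone PCR were transcribed with T7 RNA polymerase for 5 hours at 37°C and then given 15 min of DNase I treatment before EDTA was added. The RNAs were reverse transcribed with template switching and sequenced on Illumina, and DNA sequencing linked barcodes to variants. A minimum of 5 reads applied, and three batches were averaged.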

Compared with A2G U80G, A2G U80A is higher in self-cleavage: 0.17 for the first, 0.77 for the second.

First: A3C U43A
Second: A3C U43C
The self-cleavage of the first is higher: 1.24 for the first, 0.81 for the second.

Compared with A2G C71U, A3C U31G is higher in self-cleavage: 0.24 for the first, 0.93 for the second.

Going from A3C to A3G, the self-cleavage falls from 1.16 to 1.02.

First: A3C U54C
Second: A2U A28U
The self-cleavage of the first is higher: 1.17 for the first, 0.82 for the second.

First: A2U A28G
Second: A3C U49A
The self-cleavage of the first is lower: 0.65 for the first, 1.1 for the second.

Going from A3C U49C to A3G C17A, the self-cleavage falls from 0.86 to 0.33.

Going from A3G C17G to A3G C17U, the self-cleavage rises from 0.55 to 0.85.

Compared with A2G C79A, A2G C79U is lower in self-cleavage: 1.01 for the first, 0.82 for the second.

Going from A3C A47G to A3C C62U, the self-cleavage falls from 1.12 to 0.29.

First: A3C C11U
Second: A2G U72C
The self-cleavage of the first is higher: 0.88 for the first, 0.74 for the second.

First: A2G U72G
Second: A2G U72A
The self-cleavage of the first is higher: 0.42 for the first, 0.36 for the second.

Going from A2G G33C to A2G G33U, the self-cleavage falls from 0.32 to 0.3.

First: A2U U58C
Second: A2U U58A
The self-cleavage of the first is higher: 0.42 for the first, 0.35 for the second.

Compared with A2G U31C, A2G U31A is higher in self-cleavage: 0.41 for the first, 0.43 for the second.

Compared with A3G A20C, A3G A20U is lower in self-cleavage: 0.75 for the first, 0.41 for the second.

Going from A3G A20G to A2U A75U, the self-cleavage rises from 0.86 to 1.09.

Compared with A2U A75G, A2U U60A is lower in self-cleavage: 1.04 for the first, 0.56 for the second.

First: A2U U60C
Second: A2G G42A
The self-cleavage of the first is higher: 0.47 for the first, 0.05 for the second.

First: A2G G42U
Second: A2U G6A
The self-cleavage of the first is lower: 0.55 for the first, 0.66 for the second.

Going from A3G A35C to A3G A35U, the self-cleavage falls from 0.9 to 0.64.

Going from A3G A35G to A3C G24A, the self-cleavage falls from 1.21 to 0.29.

A2U C62G and A2U C62U are the same in self-cleavage: 0.31 for the first, 0.31 for the second.

Compared with A3G C27U, A3G C27A is lower in self-cleavage: 0.53 for the first, 0.45 for the second.

Going from A3G C27G to A3C C39U, the self-cleavage rises from 0.43 to 1.13.

Going from A3C G33C to A2U U26A, the self-cleavage rises from 0.35 to 0.87.

First: A2U U26G
Second: A2U U26C
The self-cleavage of the first is lower: 0.5 for the first, 0.55 for the second.

First: A2G G10U
Second: A2G G10A
The self-cleavage of the first is lower: 0.36 for the first, 0.41 for the second.

First: A2U A77G
Second: A2G U66C
The self-cleavage of the first is higher: 1.04 for the first, 0.2 for the second.

First: A2G U66G
Second: A3C A21G
The self-cleavage of the first is lower: 0.28 for the first, 0.63 for the second.

First: A3C A18U
Second: A3C A18G
The self-cleavage of the first is higher: 0.73 for the first, 0.64 for the second.

Going from A3C A5C to A3C A5G, the self-cleavage falls from 1.23 to 0.62.

Compared with A2G C81U, A2U C12U is higher in self-cleavage: 0.81 for the first, 1.18 for the second.

First: A2U C12G
Second: A2G G19A
The self-cleavage of the first is lower: 0.19 for the first, 0.58 for the second.

First: A2G G19U
Second: A2U U48C
The self-cleavage of the first is higher: 0.89 for the first, 0.62 for the second.

Going from A2U A57G to A2G G53U, the self-cleavage falls from 0.83 to 0.72.

First: A2G G53A
Second: A2U A5G
The self-cleavage of the first is lower: 0.66 for the first, 0.71 for the second.

Going from A2U A5U to A3G C11U, the self-cleavage falls from 1.09 to 0.51.

First: A3G C11A
Second: A3G C11G
The self-cleavage of the first is lower: 0.32 for the first, 0.54 for the second.

Compared with A3G A28G, A3G A28C is higher in self-cleavage: 0.72 for the first, 0.73 for the second.

Going from A3G A28U to A2G U67C, the self-cleavage falls from 0.89 to 0.26.

Going from A2G U67A to A3C A28G, the self-cleavage rises from 0.3 to 1.09.
